In US20130310317A1 (Bristol-Myers Squibb, published 2013):

The binders below were run against T1, recombinant human IGF-IR (human, UniProt P08069 31-932) (assay: direct binding ELISA: plate coated with 10 nM IGF-IR, His-tagged clone detected with His-HRP probe, TMB, OD450).
T1 construct: Bought (R&D Systems); also called insulin-like growth factor-I receptor; IGF-1R
Description: MaxiSorp™ plates (Nunc International, Rochester, N.Y.) were coated with 10 nM IGF-IR in PBS at 4° C. overnight followed by blocking in PBS-casein buffer (Pierce) for 3 hours at room temperature. Purified fibronectin-based scaffold proteins in casein buffer were bound to each well for 1 hour at room temperature at a concentration of 5 nM. The plate was washed with PBST and 100 μl of a 1:4000 dilution of His-HRP probe (Pierce) was added to each well with incubation for 15 min at room temperature. The wells were washed 5 times with PBST and the bound HRP was detected with TMB detection reagents (BD biosciences) according to the manufacturer's instructions.

| Binder | binding result | EC50 (read off the curve) |
| --- | --- | --- |
| 385A09 (designed binder, FG loop optimized derivative of 338A06) VSDVPRDLEVVAATPTSLLISWSARLKVARYYRITYGETGGNSPVQEFTVPKNVYTATISGLKPGVDYTITVYAVTRIRDYGPISINYRTHHHHHH | binds | – |
| 385B04 (designed binder, FG loop optimized derivative of 338A06) VSDVPRDLEVVAATPTSLLISWSARLKVARYYRITYGETGGNSPVQEFTVPKNVYTATISGLKPGVDYTITVYAVTAYRDYQPISINYRTHHHHHH | binds | – |
| 385F08 (designed binder, FG loop optimized derivative of 338A06) VSDVPRDLEVVAATPTSLLISWSARLKVARYYRITYGETGGNSPVQEFTVPKNVYTATISGLKPGVDYTITVYAVTSLRDYAPISINYRTHHHHHH | – | ~0.9 nM |
| 385H06 (designed binder, FG loop optimized derivative of 338A06) VSDVPRDLEVVAATPTSLLISWSARLKVARYYRITYGETGGNSPVQEFTVPKNVYTATISGLKPGVDYTITVYAVTQLRDYSPISINYRTHHHHHH | binds | – |
| 386F01 (designed binder, FG loop optimized derivative of 338A06) VSDVPRDLEVVAATPTSLLISWSARLKVARYYRITYGETGGNSPVQEFTVPKNVYTATISGLKPGVDYTITVYAVTTIRDYRPISINYRTHHHHHH | binds | – |
| 386F11 (designed binder, FG loop optimized derivative of 338A06) VSDVPRDLEVVAATPTSLLISWSARLKVARYYRITYGETGGNSPVQEFTVPKNVYTATISGLKPGVDYTITVYAVTLTRDYKPISINYRTHHHHHH | binds | – |
| 386H05 (designed binder, FG loop optimized derivative of 338A06) VSDVPRDLEVVAATPTSLLISWSARLKVARYYRITYGETGGNSPVQEFTVPKNVYTATISGLKPGVDYTITVYAVTVVRDYRPISINYRTHHHHHH | binds | – |
| 387A03 (designed binder, FG loop optimized derivative of 338A06) VSDVPRDLEVVAATPTSLLISWSARLKVARYYRITYGETGGNSPVQEFTVPKNVYTATISGLKPGVDYTITVYAVTSYRDYWPISINYRTHHHHHH | binds | – |

These binders were tested against T2, recombinant human insulin receptor (human, UniProt P06213-2 28-944, limits assumed) (assay: SPR (BIAcore); IR amine-coupled to chip, clone at 10 µM, signal as % of insulin signal).
T2 construct: Amine-coupled to a CM5 chip (8300 RU); also called IR
Description: One liter E. coli growths of selected optimized clones were prepared and the proteins were purified.
In brief, 60 ug/mL of IR diluted in acetate 4.5 was coupled/immobilized to a level of 8300 RU and 11.9 ug/mL of VEGF-R2-Fc diluted in acetate 5.0 was immobilized to a level of 9700 RU on flow cells 2 and 3. A blank reference surface was prepared on FC 1. […] Fibronectin-based scaffold proteins were diluted to 10 uM in HBS-EP (10 mM Hepes 150 mM NaCl 3 mM EDTA 0.05% Surfactant P20) and injected at 20 uL/min for 3 minutes over the flow cells at 25 C and dissociation was observed over 10 mins.

| Binder | % IR Binding at 10 µM |
| --- | --- |
| 339A01 (designed binder, Optimized derivative of 218C04) VSDVPRDLEVVAATPTSLLISWSTALKVQRYYRITYGETGGNSPVQEFTVPKHSHTATISGLKPGVDYTITVYAVTKMRDYRPISINYRTHHHHHH | > 100% |
| 338A05 (designed binder, Optimized derivative of 218C04) VSDVPRDLEVVAATPTSLLISWSDSLKVSRYYRITYGETGGNSPVQEFTVPKQYHTATISGLKPGVDYTITVYAVTPSNIIGRHYGPISINYRTHHHHHH | 45% |
| 354A10 (designed binder, Optimized derivative of 218C04) VSDVPRDLEVVAATPTSLLISWSNRLVVKRYYRITYGETGGNSPVQEFTVPHQMKTATISGLKPGVDYTITVYAVTPGGYSGRNYGPISINYRTHHHHHH | 1% |

The binders below were run against T3, IGF-IR-Fc (human, UniProt P08069 31-932) (assay: SPR (BIAcore); IGF-IR-Fc captured on Protein A, clone in solution).
T3 construct: range 1-932; Made in house by transient transfection, captured on Protein A on CM5 chips for kinetic analysis; also called human IGF-IR-Fc fusion protein; recombinant, immobilized IGF-IR (BIAcore); not shown: hinge and constant regions of human IgG1
Description: One liter E. coli growths of selected optimized clones were prepared and the proteins were purified. Surface plasmon resonance (BIAcore) analysis was performed using recombinant, immobilized IGF-IR and solution-phase clones in order to determine binding kinetics and binding affinities.
(§1) The binding kinetics of fibronectin-based scaffold proteins binding proteins to the target was measured using BIAcore 2000 or 3000 biosensors (Pharmacia Biosensor). A capture assay was developed utilizing an IGF-IR-Fc fusion. A similar reagent had been described by Forbes et al. (Forbes et al. 2002, European J. Biochemistry, 269, 961-968). The extracellular domain of human IGF-IR (aa 1-932) was cloned into a mammalian expression vector containing the hinge and constant regions of human IgG1. Transient transfection of the plasmid produced a fusion protein, IGF-IR-Fc which was subsequently purified by Protein A chromatography and captured on Protein A immobilized on Biasensor CM5 chips by amine coupling. The kinetic analysis involved the capture of IGF-IR-Fc on Protein A followed by injection of the fibronectin-based scaffold protein in solution and regeneration of the Protein A surface by glycine pH 2.0. Sensorgrams were obtained at each concentration and were evaluated using a program Biaevaluation, BIA Evaluation 2.0 (BIAcore), to determine the rate constants kₐ (kₒₙ) and kd (koff) The dissociation constant, KD was calculated from the ratio of rate constants koff/kₒₙ. Typically, a concentration series (2 uM to 0 uM) of purified fibronectin-based scaffold protein was evaluated for binding to protein A captured human IGF-IR-Fc fusion protein.

| Binder | Kd | koff | kon |
| --- | --- | --- | --- |
| 339A01 (designed binder, Optimized derivative of 218C04) VSDVPRDLEVVAATPTSLLISWSTALKVQRYYRITYGETGGNSPVQEFTVPKHSHTATISGLKPGVDYTITVYAVTKMRDYRPISINYRTHHHHHH | 0.565 nM | 0.00067 s⁻¹ | 1.2e+06 M⁻¹ s⁻¹ |
| 338A05 (designed binder, Optimized derivative of 218C04) VSDVPRDLEVVAATPTSLLISWSDSLKVSRYYRITYGETGGNSPVQEFTVPKQYHTATISGLKPGVDYTITVYAVTPSNIIGRHYGPISINYRTHHHHHH | 0.261 nM | 0.00033 s⁻¹ | 1.3e+06 M⁻¹ s⁻¹ |
| 354A10 (designed binder, Optimized derivative of 218C04) VSDVPRDLEVVAATPTSLLISWSNRLVVKRYYRITYGETGGNSPVQEFTVPHQMKTATISGLKPGVDYTITVYAVTPGGYSGRNYGPISINYRTHHHHHH | 0.158 nM | 0.00018 s⁻¹ | 1.1e+06 M⁻¹ s⁻¹ |

Molecular target: T3, IGF-IR-Fc
Experiment: as above
Remark: another data set of the same source
Description: BIAcore analysis was performed using recombinant, immobilized IGF-IR and solution-phase clones in order to determine binding kinetics and binding affinities.
as §1

| Binder | Kd | koff | kon |
| --- | --- | --- | --- |
| 386A03 (designed binder, FG loop optimized derivative of 338A06) VSDVPRDLEVVAATPTSLLISWSARLKVARYYRITYGETGGNSPVQEFTVPKNVYTATISGLKPGVDYTITVYAVTNLRDYGPISINYRTHHHHHH | 0.088 nM | 0.00046 s⁻¹ | 5.2e+06 M⁻¹ s⁻¹ |
| 386F10 (designed binder, FG loop optimized derivative of 338A06) VSDVPRDLEVVAATPTSLLISWSARLKVARYYRITYGETGGNSPVQEFTVPKNVYTATISGLKPGVDYTITVYAVTLLRDYGPISINYRTHHHHHH | 0.123 nM | 0.00023 s⁻¹ | 1.9e+06 M⁻¹ s⁻¹ |

What follows are binders tested against T1, recombinant human IGF-IR (assay: direct binding ELISA on coated IGF-IR).

| Binder | binding result |
| --- | --- |
| 385D05 (designed binder, FG loop optimized derivative of 338A06) VSDVPRDLEVVAATPTSLLISWSARLKVARYYRITYGETGGNSPVQEFTVPKNVYTATISGLKPGVDYTITVYAVTRERDYRPISINYRTHHHHHH | binds |
| 385E01 (designed binder, FG loop optimized derivative of 338A06) VSDVPRDLEVVAATPTSLLISWSARLKVARYYRITYGETGGNSPVQEFTVPKNVYTATISGLKPGVDYTITVYAVTAVRDYRPISINYRTHHHHHH | binds |

The next lines start with the values.

| binding result | Binder |
| --- | --- |
| binds | 385E04 (designed binder, FG loop optimized derivative of 338A06) VSDVPRDLEVVAATPTSLLISWSARLKVARYYRITYGETGGNSPVQEFTVPKNVYTATISGLKPGVDYTITVYAVTELRNYGPISINYRTHHHHHH |
| binds | 386A05 (designed binder, FG loop optimized derivative of 338A06) VSDVPRDLEVVAATPTSLLISWSARLKVARYYRITYGETGGNSPVQEFTVPKNVYTATISGLKPGVDYTITVYAVTERRDYRPISINYRTHHHHHH |
| binds | 386A07 (designed binder, FG loop optimized derivative of 338A06) VSDVPRDLEVVAATPTSLLISWSARLKVARYYRITYGETGGNSPVQEFTVPKNVYTATISGLKPGVDYTITVYAVTLVRNYGPISINYRTHHHHHH |
| binds | 387A09 (designed binder, FG loop optimized derivative of 338A06) VSDVPRDLEVVAATPTSLLISWSARLKVARYYRITYGETGGNSPVQEFTVPKNVYTATISGLKPGVDYTITVYAVTMSRDYGPISINYRTHHHHHH |
| binds | 387C02 (designed binder, FG loop optimized derivative of 338A06) VSDVPRDLEVVAATPTSLLISWSARLKVARYYRITYGETGGNSPVQEFTVPKNVYTATISGLKPGVDYTITVYAVTGVRNYGPISINYRTHHHHHH |

The binders below were run against T1, recombinant human IGF-IR (assay: competitive ELISA: plate coated with 30 nM IGF-IR, clone bound first, then 10 nM biotinylated IGF-I as the blocked ligand, streptavidin-HRP/TMB, OD450).
Description: MaxiSorp™ plates (Nunc International, Rochester, N.Y.) were coated with 30 nM IGF-IR in PBS at 4° C. overnight followed by blocking in OptEIA buffer (BD biosciences, San Diego, Calif.) for 3 hours at room temperature. Purified fibronectin-based scaffold proteins in OptEIA buffer were bound to each well for 1 hour at room temperature at concentrations ranging from 50 pM to 1 μM. […] The excess ligand was removed by washing with PBST and bound ligand was detected with streptavidin-HRP (Pierce, Rockford, Ill.) using TMB detection reagents (BD biosciences) according to the manufacturer's instructions

| Binder | IC50 (read off the curve) | binding result |
| --- | --- | --- |
| 339A01 (designed binder, Optimized derivative of 218C04) VSDVPRDLEVVAATPTSLLISWSTALKVQRYYRITYGETGGNSPVQEFTVPKHSHTATISGLKPGVDYTITVYAVTKMRDYRPISINYRTHHHHHH | ~1 nM | – |
| 354F11 (designed binder, Optimized derivative of 218C04) VSDVPRDLEVVAATPTSLLISWGKHLVVQRYYRITYGETGGNSPVQEFTVPRGHYTATISGLKPGVDYTITVYAVTKMRDYRPISINYRTHHHHHH | – | binds |
| 354G09 (designed binder, Optimized derivative of 218C04) VSDVPRDLEVVAATPTSLLISWPQHLRVQRYYRITYGETGGNSPVQEFTVPRGSDTATISGLKPGVDYTITVYAVTKMRDYRPISINYRTHHHHHH | – | binds |
| 354G02 (designed binder, Optimized derivative of 218C04) VSDVPRDLEVVAATPTSLLISWAEHLQVSRYYRITYGETGGNSPVQEFTVPRGVYTATISGLKPGVDYTITVYAVTPSNIIGRHYGPISINYRTHHHHHH | – | binds |
| 354F06 (designed binder, Optimized derivative of 218C04) VSDVPRDLEVVAATPTSLLISWTTNLQVSRYYRITYGETGGNSPVQEFTVPKANTTATISGLKPGVDYTITVYAVTVSKGNRSYGPISINYRTHHHHHH | – | binds |
